From publication PMC3852661, “Structural basis of SUFU–GLI interaction in human Hedgehog signalling regulation” (Acta Crystallographica Section D: Biological Crystallography, 2013)
Where no end group is shown, it is not given here. The star is where a group is joined. 5FAM = O=C1OC2(c3ccc(O)cc3Oc3cc(O)ccc32)c2ccc(C(=O)*)cc21

T1: MBP_(A216H_K220H)-SUFU-Δ_(W61D_L62S_G63F_P453A_Δ454–456_K457A) (human, UniProt Q9UMX1 32-278; Q9UMX1 361-483, W61D | L62S | G63F | P453A | Δ454–456 | K457A)
T1 construct: human SUFU, residues 32-278, WLG61-63 mutated to DSF; heptamer that replaces amino acids 279-360 (the IDR), as in MBP-SUFU-Δ; human SUFU, residues 361-483, a flexible loop shortened; Derived from MBP-SUFU-Δ; residues 216 and 220 of the MBP moiety mutated to histidine; crystallised with zinc acetate and maltose; source: E. coli JM109 (DE3), purified (HisTrap, SEC); not shown: MBP (A216H, K220H), …
T1 sequence: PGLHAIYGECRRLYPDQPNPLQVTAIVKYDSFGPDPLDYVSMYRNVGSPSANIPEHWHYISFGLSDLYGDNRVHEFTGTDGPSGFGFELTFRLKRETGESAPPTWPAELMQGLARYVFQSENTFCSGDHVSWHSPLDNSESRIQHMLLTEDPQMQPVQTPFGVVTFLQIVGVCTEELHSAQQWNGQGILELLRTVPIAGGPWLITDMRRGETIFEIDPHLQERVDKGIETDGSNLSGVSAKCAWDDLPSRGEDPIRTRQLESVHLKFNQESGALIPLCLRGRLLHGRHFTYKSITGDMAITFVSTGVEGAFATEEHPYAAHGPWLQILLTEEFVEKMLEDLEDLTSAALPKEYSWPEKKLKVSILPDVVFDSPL

B1: MBP-SUFU-FL (domain or fragment, human, UniProt Q9UMX1 32-483, looked up)
chain: PGLHAIYGECRRLYPDQPNPLQVTAIVKYWLGGPDPLDYVSMYRNVGSPSANIPEHWHYISFGLSDLYGDNRVHEFTGTDGPSGFGFELTFRLKRETGESAPPTWPAELMQGLARYVFQSENTFCSGDHVSWHSPLDNSESRIQHMLLTEDPQMQPVQTPFGVVTFLQIVGVCTEELHSAQQWNGQGILELLRTVPIAGGPWLITDMRRGETIFEIDPHLQERVDKGIETDGSNLSGVSAKCAWDDLSRPPEDDEDSRSICIGTQPRRLSGKDTEQIRETLRRGLEINSKPVLPPINPQRQNGLAHDRAPSRKDSLESDSSTAIIPHELIRTRQLESVHLKFNQESGALIPLCLRGRLLHGRHFTYKSITGDMAITFVSTGVEGAFATEEHPYAAHGPWLQILLTEEFVEKMLEDLEDLTSPEEFKLPKEYSWPEKKLKVSILPDVVFDSPL
notes: human SUFU (Suppressor of fused), residues 32-483, called essentially full length; MBP is joined to SUFU by a three-alanine linker; vector pLJMBP4c (Monné et al., 2008); also called SUFU_(32–483); source: E. coli JM109 (DE3), purified (HisTrap, SEC); not shown: MBP, N-terminal, kept
B2: GLI1p (peptide, UniProt P08151 115-131, looked up)
peptide: TSPGGSYGHLSIGTMSP
notes: human GLI1, residues 115-131, holds the SYGH motif; also called human GLI1-derived peptide; source: synthetic peptide (Dr W. Mawby, University of Bristol)

Assays:
Conditions in all cases: both partners purified
[1] = biological target: T1, MBP_(A216H_K220H)-SUFU-Δ_(W61D_L62S_G63F …); test: crystal structure; co-crystals of the MBP-SUFU-Δ variant with zinc acetate (1:1) and GLI1p or GLI3p (1:4); hanging drop, 4°C, PEG 3350, sodium formate
MBP-SUFU-FL [2] = biological target: B1; test: HDX-MS; MBP-SUFU-FL with a 5.5-fold excess of GLI3p, incubated 1 h; exchange 300, 600 and 1800 s at 4°C; 50 mM Na HEPES pH 7.0, 50 mM NaCl, 5 mM β-mercaptoethanol, 1.5 mM maltose
MBP-SUFU-FL [3] = biological target: B1; test: MST; 50 nM FAM-GLI1p, MBP-SUFU constructs titrated (14.2–29 070 and 54–110 500 nM); 50 mM Tris–HCl pH 7.6, 150 mM NaCl, 10 mM MgCl2, 0.05% Tween-20; three independent measurements
GLI1p = biological target: B2; test: thermal stability assay (SYPRO Orange); 2.2 µM MBP-SUFU protein with 44 µM peptide; 50 mM Na HEPES pH 7.0, 50 mM NaCl, 5 mM β-mercaptoethanol; heated from 20 to 90°C; triplicate

binding result [1]	Binder	Tm shift on addition of GLI1p (GLI1p) [°C]	also measured
binds	SSASGSYGHLSASAISP (peptide, UniProt P10071 328-344, looked up, human GLI3, residues 328-344) [GLI3p]		binding result (MBP-SUFU-FL [2]): binds
	5FAM-TSPGGSYGHLSIGTMSP (peptide, UniProt P08151 115-131, looked up, human GLI1, residues 115-131; also called 5-FAM-labelled peptide; FAM-labelled GLI1p peptide; source: synthetic peptide (Pepceuticals Ltd)) [FAM-GLI1p]		binding result (MBP-SUFU-FL [3]): binds
	B1	4	
binds	B2		
	MBP-SUFU-Δ (domain or fragment, human, human SUFU, residues 32-278; heptamer that replaces amino acids 279-360 (the IDR); human SUFU, residues 361-483; Same frame as MBP-SUFU-FL (three-alanine linker after MBP); source: E. coli JM109 (DE3), purified (HisTrap, SEC); not shown: MBP, N-terminal, kept) PGLHAIYGECRRLYPDQPNPLQVTAIVKYWLGGPDPLDYVSMYRNVGSPSANIPEHWHYISFGLSDLYGDNRVHEFTGTDGPSGFGFELTFRLKRETGESAPPTWPAELMQGLARYVFQSENTFCSGDHVSWHSPLDNSESRIQHMLLTEDPQMQPVQTPFGVVTFLQIVGVCTEELHSAQQWNGQGILELLRTVPIAGGPWLITDMRRGETIFEIDPHLQERVDKGIETDGSNLSGVSAKCAWDDLPSRGEDPIRTRQLESVHLKFNQESGALIPLCLRGRLLHGRHFTYKSITGDMAITFVSTGVEGAFATEEHPYAAHGPWLQILLTEEFVEKMLEDLEDLTSPEEFKLPKEYSWPEKKLKVSILPDVVFDSPL	3.6	
